In patent publication US20150216998A1, “ENDO180-TARGETED PARTICLES FOR SELECTIVE DELIVERY OF THERAPEUTIC AND DIAGNOSTIC AGENTS” (QBI ENTERPRISES LTD., priority 2012, published 2015):

What was measured:
[1] = system: tested cell lines; assay: Internalization of anti-ENDO180 antibodies into the tested cell lines (confocal microscopy); type: cell-based; details: unconjugated Abs followed by secondary FITC goat anti mouse Ab
Method: Internalization assays were performed in 24 well plates. 1×10^5 A549 or NRK-ENDO180 or NRK naive cells were seeded on cover slips in RPMI or DMEM medium respectively, supplemented with antibiotics, L-Glutamine and 10% fetal calf serum (Biological Industries, Beit Haemek, Israel).
For membrane staining, cells were stained with CellTracker™ DilC18 (5)-DS solution (Invitrogen, Carlsbad, Calif., USA), diluted 1:5000 with PBS. For cell membrane labeling, Concanavalin A, Alexa fluor 647 conjugate (10 μg/ml) (C21421, Invitrogen) was used. For nuclei staining, cells were stained with Hoechst (1:10,000 in PBS) (33258, Sigma). […] Subsequently, the cells were washed twice using cold PBS, fixated with 4% paraformaldehyde (PFA) and washed again with cold PBS. Membrane and nuclei staining were performed after fixation.
The cells were mounted using fluorescent mounting medium (Golden Bridge international, Mukilteo, Wash., USA) and fluorescence was measured using Andor Spinning disc confocal microscope and the Meta 510 Zeiss LSM confocal microscope. Laser beams at 405, 488, 561 and 650 nm were used for UV, Rhodamine, Concavaline A and CellTracker™, fluorophores excitation respectively. Serial optical sections of the cells were recorded for each treatment and the images were processed using Zeiss LSM Image browser software. […]

[2] = system: ENDO180 expressing cell lines; assay: FACS binding capacity screening, all tested ENDO180 expressing cell lines; type: cell-based
Method: For binding analysis, 3.5×10^5 cells were trypsinized, spun down, re-suspended with FACS buffer (1% fetal bovine serum in 1×PBS), incubated for 30 minutes on ice with anti ENDO180 mAbs (1 μg) and washed with 1 ml FACS buffer. mAb samples were incubated with a secondary FITC conjugated goat anti mouse IgG antibody (115-095-072) (1:100, 150 μg/ml) in 50 μl of FACS buffer 30 minutes on ice, resuspended in 1 ml FACS buffer and analyzed using a FACS Calibur flow cytometer.
Cell lines which express different ENDO180 receptor levels were tested: NRK+ (a normal rat kidney), DU145^+ (a human prostate adenocarcinoma), LLC^+ (a mouse Lewis lung carcinoma), DU145^− and LLC^− (control cell lines, which are low expressors of ENDO180 receptor levels, i.e. express the PIRES Puro empty plasmid), A549 (human lung carcinoma) and CT26 (mouse colon carcinoma). NRK+, DU145^+ and LLC^+ stably express ENDO180 receptor levels. A549 and CT26 express naturally unknown levels of ENDO180 receptor. The binding capacity of the above cell lines was compared using 4 different Abs: mAb 8D8 clone, mAb10C12 clone, minibody (MB) and anti-wnt minibody (negative control).
A new batch was tested and the secondary Ab was changed (FITC conjugated goat anti mouse IgG F(ab)2 fragment, 115-095-072, Jackson Immunoresearch). The new MB batch was labeled directly with protein labeling kit.

B1: MB: anti-ENDO180 scFv clone G7V, SEQ ID NO:6, also known as minibody (protein)
scFv: MKYLLPTAAAGLLLLAASGAHAQVQLVQSGGGLVKPGGSLRLSCAASGFTFSSYSMNWVRQAPGKGLEWVANIKPDGSERHSVDSVKGRFTISRDNSKNSLYLQMNSLRAEDTAVYYCARPGAGRLDYWGQGTLVTVSSGGGGSGGGGSGGGGSNFMLTQDAAVSVALGQTVRITCQGDSLRSYYASWYQQKPGQAPVLVVYGKNNRPSGIPDRFSGSSSGNTASLTITGAQAEDEADYYCNSRDSSGNPWAFGGGTKVTVLASGKPIPNPLLGLDSTHHHHHH
modifications: Polypeptide encoded by SEQ ID NO:5
internalization [1]: no internalization
binding capacity ([2]; all of the tested cell lines, first batch, secondary FITC Ab): weak binding capacity
binding capacity ([2]; new batch, labeled directly with protein labeling kit, FIGS. 4A-D): No significant improvement in binding capacity
